Reference: patent US9266964

B1: M6-D09 (antibody, V domains shown)
VH: EVQLLESGGGLVQPGGSLRLSCAASGFTFSFYYMVWVRQAPGKGLEWVSVIYPSGGITVYADSVKGRFTISRDNSKNTLYLQMNSLRAEDTAVYYCARDKWAVMPPYYYYAMDVWGQGTTVTVSS
VL: DIQMTQSPSSLSASVGDRVTITCRASQSIRNYLNWYQQKPGKAPNLLIYAASTLQSGVPARFSGSGSGTDFTLTISSLQPEDFATYYCQQLSGYPHTFGQGTKLEIK
notes: also called M06-D09; 559A-M06-D09
B2: M29-D09 (Fab, V domains shown)
VH: EVQLLESGGGLVQPGGSLRLSCAASGFTFSWYTMVWVRQAPGKGLEWVSYIYPSGGATFYADSVKGRFTISRDNSKNTLYLQMNSLRAEDTAVYYCAMGSYDYIWGFYSDHWGQGTLVTVSS
VL: QSALTQPPTVSVSPGQTARITCSGNKLGDKYVAWYQQKPGQSPMLVIYQDTKRPSRVSERFSGSNSANTATLSISGTQALDEADYYCQAWDSSIVIFGGGTRLTVL
notes: also called 559A-M29-D09 (sFab); 559A-M0029-D09
B3: M35-G04 (antibody, V domains shown)
VH: EVQLLESGGGLVQPGGSLRLSCAASGFTFSYYHMSWVRQAPGKGLEWVSVISPSGGSTKYADSVKGRFTISRDNSKNTLYLQMNSLRAEDTAVYYCARGGSSDYAWGSYRRPYYFDYWGQGTLVTVSS
VL: DIQMTQSPATLSLSPGERATLSCRASQSVSSYLAWYQQKPGQAPRLLIYDASNRATGIPARFSGSGSGTDFTLTISSLEPEDFAVYYCQQRSNWPRGFTFGPGTKVDIK
notes: also called 559A-M35-G04; 559A-M0035-G04
B4: M160-G12 (antibody, V domains shown)
VH: EVQLLESGGGLVQPGGSLRLSCAASGFTFSHYLMTWVRQAPGKGLEWVSYISPSGGHTIYADSVKGRFTISRDNSKNTLYLQMNSLRAEDTAVYYCARVARGIAARSRTSYFDYWGQGTLVTVSS
VL: DIQMTQSPSFLSASVGDRVTITCRASQGISSYLAWYQQKPGKAPKLLIYAASTLQSGVPSRFSGSGSGTEFTLTISSLQPEDFATYYCQQLNSYPLTFGGGTKVEIK
notes: also called R84-D02
B5: X115-G04 (antibody, V domains shown)
VH: EVQLLESGGGLVQPGGSLRLSCAASGFTFSHYIMMWVRQAPGKGLEWVSGIYSSGGITVYADSVKGRFTISRDNSKNTLYLQMNSLRAEDTAVYYCAYRRTGVPRRDEFDIWGQGTMVTVSS
VL: DIQMTQSPSTLSASVGDRVTITCRASQSISSWLAWYQQKPGKAPKLLIYKASTLESGVPSRFSGSGSGTEFTLTISSLQPDDFATYYCQQYNTYWTFGQGTKVEIK
notes: also called 559A-X115-G04; 559A-X0115-G04
B6: DX-2922 (antibody, V domains shown)
VH: EVQLLESGGGLVQPGGSLRLSCAASGFTFSHYLMTWVRQAPGKGLEWVSYISPSGGHTIYADSVKGRFTISRDNSKNTLYLQMNSLRAEDTAVYYCARVARGIAARSRTSYFDYWGQGTLVTVSS
VL: EIVLTQSPGTLSLSPGERATLSCRTSQFVNSNYLAWYQQKPGQAPRLLIYGASSRATGIPDRFSGSGSGTDFTLTISRLEPEDFAVYYCQQSSRTPWTFGQGTKVEIK
notes: Germlined IgG produced in CHO cells; only the variable domains are printed; also called X101-A01; 559A-X0101-A01
B7: X115-B07 (antibody, V domains shown)
VH: EVQLLESGGGLVQPGGSLRLSCAASGFTFSHYLMTWVRQAPGKGLEWVSYISPSGGHTIYADSVKGRFTISRDNSKNTLYLQMNSLRAEDTAVYYCAMVGQGIRGRSRTSYFAQWGQGTLVTVSS
VL: EIVLTQSPGTLSLSPGERATLSCRTSQFVNSNYLAWYQQKPGQAPRLLIYGASSRATGIPDRFSGSGSGTDFTLTISRLEPEDFAVYYCQQSSRTPWTFGQGTKVEIK
notes: only variable domains given; also called 559A-X115-B07; 559A-X0115-B07
B8: X115-F02 (Fab, V domains shown)
VH: EVQLLESGGGLVQPGGSLRLSCAASGFTFSHYIMMWVRQAPGKGLEWVSGIYSSGGITVYADSVKGRFTISRDNSKNTLYLQMNSLRAEDTAVYYCAYRRIGVPRRDEFDIWGQGTMVTVSS
VL: DIQMTQSPSTLSASVGDRVTITCRASQSISSWLAWYQQKPGKAPKLLIYKASTLESGVPSRFSGSGSGTEFTLTISSLQPDDFATYYCQQYNTYWTFGQGTKVEIK
notes: also called 559A-X115-F02; 559A-X0115-F02
B9: X115-A03 (antibody, V domains shown)
VH: EVQLLESGGGLVQPGGSLRLSCAASGFTFSHYIMMWVRQAPGKGLEWVSGIYSSGGITVYADSVKGRFTISRDNSKNTLYLQMNSLRAEDTAVYYCAWRRIGVPRRDSFDMWGQGTMVTVSS
VL: DIQMTQSPSTLSASVGDRVTITCRASQSISSWLAWYQQKPGKAPKLLIYKASTLESGVPSRFSGSGSGTEFTLTISSLQPDDFATYYCQQYNTYWTFGQGTKVEIK
notes: only variable domains given; also called 559A-X115-A03; 559A-X0115-A03
B10: X115-D01 (antibody, V domains shown)
VH: EVQLLESGGGLVQPGGSLRLSCAASGFTFSIYSMHWVRQAPGKGLEWVSSIYPSRGMTWYADSVKGRFTISRDNSKNTLYLQMNSLRAEDTAVYYCAYRRTGIPRRDAFDIWGQGTMVTVSS
VL: DIQMTQSPSTLSASVGDRVTITCRASQSISSWLAWYQQKPGKAPKLLIYKASTLESGVPSRFSGSGSGTEFTLTISSLQPDDFATYYCQQYNTYWTFGQGTKVEIK
notes: only variable domains given; also called 559A-X115-D01; 559A-X0115-D01
B11: X115-G04 (antibody, V domains shown)
VH: EVQLLESGGGLVQPGGSLRLSCAASGFTFSHYIMMWVRQAPGKGLEWVSGIYSSGGITVYADSVKGRFTISRDNSKNTLYLQMNSLRAEDTAVYYCAYRRTGVPRRDEFDIWGQGTMVTVSS
VL: DIQMTQSPSTLSASVGDRVTITCRASQSISSWLAWYQQKPGKAPKLLIYKASTLESGVPSRFSGSGSGTEFTLTISSLQPDDFATYYCQQYNTYWTFGQGTKVEIK
notes: only variable domains given; also called 559A-X115-G04; 559A-X0115-G04
B12: M29-D09 (Fab, V domains shown)
VH: EVQLLESGGGLVQPGGSLRLSCAASGFTFSWYTMVWVRQAPGKGLEWVSYIYPSGGATFYADSVKGRFTISRDNSKNTLYLQMNSLRAEDTAVYYCAMGSYDYIWGFYSDHWGQGTLVTVSS
VL: QSALTQPPTVSVSPGQTARITCSGNKLGDKYVAWYQQKPGQSPMLVIYQDTKRPSRVSERFSGSNSANTATLSISGTQALDEADYYCQAWDSSIVIFGGGTRLTVL
notes: as for B2
B13: M145-D11 (Fab, V domains shown)
VH: EVQLLESGGGLVQPGGSLRLSCAASGFTFSHYRMSWVRQAPGKGLEWVSSIYPSGGRTVYADSVKGRFTISRDNSKNTLYLQMNSLRAEDTAVYYCAKDKFEWRLLFRGIGNDAFDIWGQGTMVTVSS
VL: QSVLTQPPSVSVSPGQTASITCSGDKLGDKYTSWYQQRPGQSPVLVIYQDIKRPSGIPERFSGSNSGNTATLTISGTQAMDEADYYCQAWDSPNARVFGSGTKVTVL
notes: also called 559A-M145-D11 (sFab); 559A-M0145-D11
B14: M06-D09 (antibody, V domains shown)
VH: EVQLLESGGGLVQPGGSLRLSCAASGFTFSFYYMVWVRQAPGKGLEWVSVIYPSGGITVYADSVKGRFTISRDNSKNTLYLQMNSLRAEDTAVYYCARDKWAVMPPYYYYAMDVWGQGTTVTVSS
VL: DIQMTQSPSSLSASVGDRVTITCRASQSIRNYLNWYQQKPGKAPNLLIYAASTLQSGVPARFSGSGSGTDFTLTISSLQPEDFATYYCQQLSGYPHTFGQGTKLEIK
notes: Only variable domains printed; also called M6-D09; 559A-M06-D09
B15: M35-G04 (antibody, V domains shown)
VH: EVQLLESGGGLVQPGGSLRLSCAASGFTFSYYHMSWVRQAPGKGLEWVSVISPSGGSTKYADSVKGRFTISRDNSKNTLYLQMNSLRAEDTAVYYCARGGSSDYAWGSYRRPYYFDYWGQGTLVTVSS
VL: DIQMTQSPATLSLSPGERATLSCRASQSVSSYLAWYQQKPGQAPRLLIYDASNRATGIPARFSGSGSGTDFTLTISSLEPEDFAVYYCQQRSNWPRGFTFGPGTKVDIK
notes: Only variable domains printed; also called 559A-M35-G04; 559A-M0035-G04

How the values were obtained:
[1] = target: T1, human plasma kallikrein (active form) (human, UniProt P03952 20-390; P03952 391-638); assay: apparent Ki (Ki,app), inhibition of human pKal enzyme activity
T1 construct: also called pKal; human pKal
T1 sequence (P03952 20-390, chain 1 of 2): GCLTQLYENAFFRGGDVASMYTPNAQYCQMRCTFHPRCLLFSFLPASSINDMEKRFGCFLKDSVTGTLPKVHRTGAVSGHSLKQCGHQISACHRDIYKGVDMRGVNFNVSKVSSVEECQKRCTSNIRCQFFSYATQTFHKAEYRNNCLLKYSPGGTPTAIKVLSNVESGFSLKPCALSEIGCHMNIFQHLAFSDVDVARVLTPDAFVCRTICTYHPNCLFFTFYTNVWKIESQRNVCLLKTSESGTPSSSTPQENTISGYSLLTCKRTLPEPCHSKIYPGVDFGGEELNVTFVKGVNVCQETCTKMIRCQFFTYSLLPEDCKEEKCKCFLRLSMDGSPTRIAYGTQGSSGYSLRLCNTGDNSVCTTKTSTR
T1 sequence (P03952 391-638, chain 2 of 2): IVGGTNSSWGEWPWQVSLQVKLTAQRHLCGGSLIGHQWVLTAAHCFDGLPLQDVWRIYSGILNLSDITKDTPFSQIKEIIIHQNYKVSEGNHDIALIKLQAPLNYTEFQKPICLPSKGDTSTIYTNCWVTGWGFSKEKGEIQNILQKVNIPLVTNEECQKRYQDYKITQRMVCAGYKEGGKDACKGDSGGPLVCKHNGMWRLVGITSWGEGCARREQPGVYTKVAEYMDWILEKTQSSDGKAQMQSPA
Method: (§1) Apparent Inhibition constants (K_{i,app} values) were measured by pre-incubating enzyme and inhibitor solutions prior to initiating the reactions with substrate. Enzyme and inhibitor were pre-incubated for 2 hours at 30° C. in a 96-well plate by adding 10 μL of a 10× enzyme solution and 10 μL of 10× inhibitor solutions to 70 μL of reaction buffer. Reactions were initiated by the addition of 10 μL of a 10× concentrated stock of substrate, and were monitored at 30° C. in a fluorescence plate reader with the excitation and emission wavelengths set at 360 nm/460 nm, respectively. Kinetic data were acquired by the increase in fluorescence, and initial rates for each condition were plotted against the total inhibitor concentration. The data was fit to the following equation for tight binding inhibitors: […]

[2] = target: T2, mouse plasma kallikrein (mouse, UniProt P26262 20-638, limits assumed); assay: apparent Ki (Ki,app), inhibition of mouse pKal enzyme activity
T2 construct: also called mouse pKal
T2 sequence (P26262 20-638 limits assumed): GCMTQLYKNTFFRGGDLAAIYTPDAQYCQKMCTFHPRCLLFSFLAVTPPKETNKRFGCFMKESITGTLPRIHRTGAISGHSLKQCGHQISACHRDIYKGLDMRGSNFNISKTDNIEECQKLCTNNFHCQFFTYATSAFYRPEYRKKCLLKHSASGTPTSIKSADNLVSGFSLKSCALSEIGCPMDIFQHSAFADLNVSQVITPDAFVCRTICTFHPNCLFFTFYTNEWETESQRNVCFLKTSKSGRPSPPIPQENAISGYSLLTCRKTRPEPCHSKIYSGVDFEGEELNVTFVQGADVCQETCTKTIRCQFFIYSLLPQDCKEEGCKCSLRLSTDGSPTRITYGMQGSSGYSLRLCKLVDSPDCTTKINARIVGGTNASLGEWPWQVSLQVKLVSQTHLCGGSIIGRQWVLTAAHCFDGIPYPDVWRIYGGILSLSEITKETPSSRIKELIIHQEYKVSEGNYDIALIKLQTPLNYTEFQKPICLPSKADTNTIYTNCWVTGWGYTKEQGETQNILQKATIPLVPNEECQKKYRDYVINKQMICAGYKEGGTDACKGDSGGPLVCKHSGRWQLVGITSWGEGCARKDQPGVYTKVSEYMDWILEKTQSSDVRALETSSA
Method: as §1

[3] = target: T3, pKal catalytic domain Mutant 1 (human, UniProt P03952 391-638, limits assumed); assay: apparent Ki (Ki,app), enzyme inhibition, pKal catalytic domain Mutant 1
T3 construct: domain: catalytic domain; Expressed in Pichia pastoris, purified by IMAC; not shown: His tag fusion
Method: as §1

[4] = target: T4, pKal catalytic domain Mutant 2 (human, UniProt P03952 391-638, limits assumed); assay: apparent Ki (Ki,app), enzyme inhibition, pKal catalytic domain Mutant 2
T4 construct: domain: catalytic domain; Expressed in Pichia pastoris, purified by IMAC; not shown: His tag fusion
Method: as §1

[5] = target: T5, wild type pKal catalytic domain (human, UniProt P03952 391-638, limits assumed); assay: apparent Ki (Ki,app), enzyme inhibition, wild type pKal catalytic domain
T5 construct: domain: catalytic domain; also called WT cat; Domain; not shown: His tag fusion
Method: as §1

[6] = target: T6, human plasma kallikrein (full length, active) (human, UniProt P03952 20-390; P03952 391-638); assay: Ki,app: enzyme inhibition, fluorescent substrate, 2 h pre-incubation at 30 C, tight-binding fit
T6 construct: two disulfide linked polypeptides; also called Full length pKal; pKal
T6 sequence (P03952 20-390, chain 1 of 2): as the sequence (P03952 20-390, chain 1 of 2) above
T6 sequence (P03952 391-638, chain 2 of 2): as the sequence (P03952 391-638, chain 2 of 2) above
Method: as §1

[7] = target: T7, wild type pKal catalytic domain (human, UniProt P03952 391-638, limits assumed); assay: as above
T7 construct: domain: catalytic domain; The expression in Pichia pastoris with a His tag and IMAC purification is told of the mutants; also called WT cat; Domain; not shown: His tag fusion
Method: as §1

[8] = target: T8, pKal catalytic domain Mutant 1 (human, UniProt P03952 391-638, limits assumed); assay: as above
T8 construct: domain: catalytic domain; Expressed in Pichia pastoris, purified by IMAC; not shown: His tag fusion
Method: as §1

[9] = target: T9, pKal catalytic domain Mutant 2 (human, UniProt P03952 391-638, limits assumed); assay: as above
T9 construct: domain: catalytic domain; Expressed in Pichia pastoris, purified by IMAC; not shown: His tag fusion
Method: as §1

| Binder | Ki [1] [nM] | Ki [2] [nM] | Ki [3] [nM] | Ki [4] [nM] | Ki [5] [nM] | Ki [6] [nM] | Ki [7] [nM] | Ki [8] [nM] | Ki [9] [nM] |
| --- | --- | --- | --- | --- | --- | --- | --- | --- | --- |
| B1 | 5.9 | 3.9 | 3.4 | 13.5 | 2.5 | – | – | – | – |
| B2 | 0.7 | – | 0.27 | 0.34 | 0.24 | – | – | – | – |
| B3 | 2.9 | 8 | 0.09 | 1.1 | 0.8 | – | – | – | – |
| B4 | 5 | 0.2 | – | – | – | – | – | – | – |
| B5 | – | – | 0.4 | 2.2 | 0.3 | – | – | – | – |
| B6 | – | – | – | – | – | 0.2 | 0.22 | 14 | 20 |
| B7 | – | – | – | – | – | 0.33 | – | 4.7 | 47 |
| B8 | – | – | – | – | – | 0.089 | 0.09 | 0.14 | 5.9 |
| B9 | – | – | – | – | – | 0.16 | 0.16 | 0.23 | 3.7 |
| B10 | – | – | – | – | – | 0.18 | 0.18 | 0.26 | 2.5 |
| B11 | – | – | – | – | – | 0.6 | 0.3 | 0.4 | 2.2 |
| B12 | – | – | – | – | – | 0.7 | 0.24 | 0.27 | 0.34 |
| B13 | – | – | – | – | – | 0.79 | 0.16 | 0.23 | 0.1 |
| B14 | – | – | – | – | – | 5.9 | 2.5 | 3.4 | 13.5 |
| B15 | – | – | – | – | – | 2.9 | 0.8 | 0.09 | 1.1 |
